Reference: US20250084174A1

Columns and labels:
[1] = target: human CCR9 (isoform not given) (human), P51686
[2] = target: human CCR9 (isoform not given) (human), P51686; assay: cell-based or functional assay
[3] = target: CCR9 (species and isoform not stated) (UniProt P51686); assay: cell-based or functional assay
[4] = target: CCR9 (species and isoform not stated) (UniProt P51686)
[5] = target: CCR9 (species and isoform not stated) (UniProt P51686); assay: LigandTracer on CCR9-expressing CHO K1 cells, DyLight 650 labelled IgG, bivalent (1:2) fit, ~22 °C

Chain of human CCR9 (isoform not given) (human), P51686 (P51686 whole entry, canonical isoform): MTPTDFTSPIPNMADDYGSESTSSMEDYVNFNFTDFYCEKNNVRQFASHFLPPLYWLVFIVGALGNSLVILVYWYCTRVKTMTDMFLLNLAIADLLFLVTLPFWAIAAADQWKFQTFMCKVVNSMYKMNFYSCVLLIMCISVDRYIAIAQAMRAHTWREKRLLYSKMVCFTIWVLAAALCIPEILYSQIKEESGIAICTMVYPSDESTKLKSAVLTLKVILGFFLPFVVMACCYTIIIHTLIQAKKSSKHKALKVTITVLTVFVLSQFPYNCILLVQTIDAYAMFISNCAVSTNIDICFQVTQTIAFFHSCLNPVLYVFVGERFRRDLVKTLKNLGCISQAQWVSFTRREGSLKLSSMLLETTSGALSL

| IC50 (read off the curve), HTRF IP-One, MOLT 4 cells, 50 nM CCL25 [1] [pM] | prevention of CCL25 induced CCR9 internalisation (FACS) [3] [nM] | Potency, NK cell activation (NK-92 CD16a NFAT luciferase reporter) [2] [nM] | EC50, luminescence signal (CPS) against Log M; potency curve as in the NK cell activation reporter assay; the target cell line is not printed on the sheet [4] [M] | koff [5] [s⁻¹] | Binder | EC50, killing of PBMC [2] [pM] | EC50, killing of human CD4+CCR9+ PBMC [2] [pM] |
| --- | --- | --- | --- | --- | --- | --- | --- |
| 600 | 2 | – | – | – | AB243LO0326 (antibody, V domains shown, afucosylated form; in the LigandTracer assay DyLight 650 Maleimide on an engineered cysteine residue in the CH2 region) VH: QVQLVQSGAEVKKPGASVKVSCKASGYTFTSYWMHWVRQAPGQGLEWIGVIYPGNSDTRYNQKFKGRVTITRDTSASTAYMELSSLRSEDTAVYYCTRDYYSNYVYYYAMDYWGQGTTVTVSS VL: DIVMTQTPLSLPVTPGEPASISCRSSQSLVHPNRNTYLHWYLQKPGQSPQLLIYKVSNRFSGVPDRFSGSGSGTDFTLKISRVEAEDVGVYYCSQSTHVPWTFGQGTKLEIK | 4 | 4 to 5 |
| 600 | – | – | – | – | AB243LO0331 (antibody, IgG1, V domains shown, here or on the partner: afucosylated form) VH: QVQLVQSGAEVKKPGASVKVSCKASGYTFTSYWMHWVRQAPGQGLEWIGVIYPGNSDTRYNQKFKGRVTITRDTSASTAYMELSSLRSEDTAVYYCTRDYYSNYVYYYAMDYWGQGTTVTVSS VL: DIVMTQTPLSLPVTPGEPASISCRSSQSLVHSNTNTYLHWYLQKPGQSPQLLIYKVSNRFSGVPDRFSGSGSGTDFTLKISRVEAEDVGVYYCSQSTHVPWTFGQGTKLEIK | – | – |
| – | – | 0.8 | 7.3e-09 | 4.3e-05 | humanised AB1020243 afuc (AB1020243-fgl) (antibody, V domains shown, afucosylated form; in the LigandTracer assay DyLight 650 Maleimide on an engineered cysteine residue in the CH2 region) VH: QVQLVQSGAEVKKPGASVKVSCKASGYTFTSYWMHWVRQAPGQGLEWIGVIYPGNSDTRYNQKFKGRVTITRDTSASTAYMELSSLRSEDTAVYYCTRDYYSNYVYYYAMDYWGQGTTVTVSS VL: DIVMTQTPLSLPVTPGEPASISCRSSQSLVHSNGNTYLHWYLQKPGQSPQLLIYKVSNRFSGVPDRFSGSGSGTDFTLKISRVEAEDVGVYYCSQSTHVPWTFGQGTKLEIK | – | – |
